Ends that are not written are not given here.

For orientation: Kd means the equilibrium constant for the complex coming apart.

This experiment deals with T1, Bone Morphogenic Protein 2 (BMP-2) (UniProt P12643 283-396).
T1 construct: Bought from Medtronic; In the phage ELISAs it was biotinylated with NHS-biotin (about one biotin per molecule) and held on streptavidin plates; In the peptide assays it was unlabelled
As to the kind of experiment: estimated affinity from solution-phase binding of biotinylated peptide and BMP-2, capture on streptavidin plate, anti-BMP antibody detection.

T1 sequence (P12643 283-396 limits assumed): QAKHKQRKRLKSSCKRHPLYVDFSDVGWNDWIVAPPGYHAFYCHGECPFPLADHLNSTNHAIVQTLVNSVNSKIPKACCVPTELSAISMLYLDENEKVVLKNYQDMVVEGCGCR

B1: AFF-2009 (peptide)
peptide: SSFEPLRFPLKGVPVSR
modifications: not fully specified (residues 1, 2, 16, 17, C-terminus); also: C-terminal Lys(ε-biotin), linker before it not given here
notes: Synthetic form of the peptide of clone AP02-60; not shown: C-terminal biotinylated lysine; any linker before it is not spelled out for this peptide
For B1, the Kd was 10 nM.

B2: AFF-2012 (peptide)
peptide: SSSVDLYFPLKGDVVSR
modifications: not fully specified (residues 1, 2, 16, 17, C-terminus); also: C-terminal Lys(ε-biotin), linker before it not given here
notes: Synthetic form of the peptide of clone AP02-59; not shown: C-terminal biotinylated lysine; any linker before it is not spelled out for this peptide
On to B2, for which the Kd is 9 nM.

Values taken from patent publication US20060051395A1 (AFFINERGY, published 2006).
